Patent US20220195054A1 (BERGEN TEKNOLOGIOVERF RING, published 2022)
Like-named read-outs stand apart in the source and are kept apart here.

What was measured:
[1] = target: T1, recombinant human Axl-Fc chimera (rhAxl-Fc; R&D Systems, Cat. no. 154-AL) (human, UniProt P30530 26-451); test: SPR (Biacore 3000, 25 C), rhAxl-Fc immobilised (190 RU), antibody as analyte, koff/kon
T1 construct: Bought construct; also called rhAxi-Fc; Hu-Axl-Fc; Fc part of the bought chimera not given

[2] = target: T2, human Axl receptor on cells (MDA-MB-231, HeLa, LX2, Axl-positive cells) (human, UniProt P30530 26-894); test: flow cytometry on MDA-MB-231 cells, APC-conjugated anti-human IgG F(ab')2 detection
T2 construct: Endogenous receptor of human tumour cell lines

[3] = target: T1, recombinant human Axl-Fc chimera …; test: SPR two-injection competition on immobilised Axl-Fc; first injection
[4] = target: T2, human Axl receptor on cells …; test: cell-based or functional assay
[5] = target: T1, recombinant human Axl-Fc chimera …; test: SPR (Biacore 3000, 25 C), rhAxl-Fc immobilised; ln2/koff
Protocol: (§1) The precise kinetic analysis was performed using BIA evaluation software and curve fitting according to 1:1 Langmuir binding model.

[6] = target: T1, recombinant human Axl-Fc chimera …; test: SPR (Biacore 3000, 25 C), rhAxl-Fc immobilised (190 RU), antibody as analyte, 1:1 Langmuir
Protocol: as §1

[7] = target: T2, human Axl receptor on cells …; test: flow cytometry titration on MDA-MB-231 cells, Kd of the fitted curve, the axis of the fitted curves is Conc. (nM) [table under the graph]
Protocol: (§2) The cells were collected by centrifugation at 200 g for 5 min. The antibody was diluted for total concentration in PBS containing 0.2% bovine serum albumin (BSA). Cell staining was performed using 200 μL of cell suspension comprising 200 000 cells for 30 min at room temperature. […] After two washing steps with PBS/0.2% BSA, the cells were resuspended in 200 μL PBS and kept on ice before analysis on Fortessa flow cytometer (BD Biosciences).

[8] = target: T2, human Axl receptor on cells …; test: flow cytometry on MDA-MB-231 cells, APC-conjugated anti-human IgG F(ab')2 detection; remark: listed apart in the source
Protocol: as §2

B1: chimeric monoclonal antibody 10G5 (mouse variable/human constant IgG1) (antibody, V domains shown)
VH: QVQLQQSGAELVRPGASVKLSCKASGYSFTDFYINWVRQRPGQGLEWIARIFPGGDNTYYNEKFKGKATLTAEESSSTAYIQLSSLTSEDSAVYFCARRGLYYAMDYWGQGISVTVSS
VL: DVLMTQTPLSLPVSLGDQASISCRSSQSLVHSNGIPYLHWYLQKPGQSPKLLIYRVSNRFSGVPDRFSGSGSGTDFTLKISRVEAEDLGVYFCSQGTHVPPTFGGGTKLEIK
notes: also called c10G5; C10G5
Kd [1]: 0.103 nM | EC50 (read off the curve) [2]: ~0.2 nM | 1st Response [3]: ~170 | EC50 (pM), killing of MDA-MB-231 cells by antibody coupled to Saporin (FabFc-ZAP), XTT/PMS viability after 72 hrs [4]: 5.71 pM | Half-life (t1/2) [5]: 1.14 h | koff [6]: 0.000169 s⁻¹ | kon [6]: 1.64e+06 M⁻¹ s⁻¹ | Kd [7]: 0.0922 nM | EC50 (read off the curve) [8]: ~0.1 nM
